The values below come from publication PMC6853996, “Assaying Homodimers of NF-κB in Live Single Cells” (Frontiers in Immunology, 2019).

Values joined by “and” are separate entries in the source; they are usually repeats but may differ in a detail not shown here. Identical values can stand only once.

Data set [1] deals with the molecule itself. Kind of data set: Number and Brightness (N&B) live-cell confocal fluorescence fluctuation microscopy; nuclei of live NIH3T3 fibroblasts transiently or stably expressing the mEGFP fusion, 37°C; brightness ε relative to the mEGFP-mutGR monomer control; stimuli 10 ng/mL TNFα, 100 ng/mL LPS, 100 nM Dex, dihydrotestosterone or progesterone; pre-treatments WFA (0.5 or 1 μM, 1 h) or TSA (2 h) before LPS; untagged endogenous protein present.

The target in data set [2] is T1, mEGFP-GR (mEGFP-tagged wild-type glucocorticoid receptor), P06537.
T1 chain: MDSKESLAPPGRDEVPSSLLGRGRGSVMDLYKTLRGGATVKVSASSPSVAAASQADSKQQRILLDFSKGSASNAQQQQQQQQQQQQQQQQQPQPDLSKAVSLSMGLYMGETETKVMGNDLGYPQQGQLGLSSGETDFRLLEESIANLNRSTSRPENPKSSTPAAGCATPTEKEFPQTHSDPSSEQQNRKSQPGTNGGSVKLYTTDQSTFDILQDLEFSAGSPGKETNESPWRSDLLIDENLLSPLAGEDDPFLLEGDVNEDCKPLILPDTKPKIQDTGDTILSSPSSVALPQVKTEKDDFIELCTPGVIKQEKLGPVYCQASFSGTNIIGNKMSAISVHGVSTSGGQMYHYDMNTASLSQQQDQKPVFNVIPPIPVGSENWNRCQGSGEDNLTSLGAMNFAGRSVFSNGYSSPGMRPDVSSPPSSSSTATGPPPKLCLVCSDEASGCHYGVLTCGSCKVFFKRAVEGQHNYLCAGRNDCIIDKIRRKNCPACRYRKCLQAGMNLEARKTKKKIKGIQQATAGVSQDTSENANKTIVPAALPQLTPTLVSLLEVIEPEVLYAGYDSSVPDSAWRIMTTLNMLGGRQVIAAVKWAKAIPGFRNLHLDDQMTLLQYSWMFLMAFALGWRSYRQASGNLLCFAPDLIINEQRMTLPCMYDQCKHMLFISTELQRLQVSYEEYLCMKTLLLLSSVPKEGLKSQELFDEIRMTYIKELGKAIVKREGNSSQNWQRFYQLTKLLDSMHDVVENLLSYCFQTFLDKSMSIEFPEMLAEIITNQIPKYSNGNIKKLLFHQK
The data set is described as above. The following applies: remark: other sources report otherwise.

Data set [3] addresses T2, mEGFP-RelA (fluorescent fusion protein expressed from the pSF-EF1α-Ub-Neo plasmid), Q04207.
T2 chain: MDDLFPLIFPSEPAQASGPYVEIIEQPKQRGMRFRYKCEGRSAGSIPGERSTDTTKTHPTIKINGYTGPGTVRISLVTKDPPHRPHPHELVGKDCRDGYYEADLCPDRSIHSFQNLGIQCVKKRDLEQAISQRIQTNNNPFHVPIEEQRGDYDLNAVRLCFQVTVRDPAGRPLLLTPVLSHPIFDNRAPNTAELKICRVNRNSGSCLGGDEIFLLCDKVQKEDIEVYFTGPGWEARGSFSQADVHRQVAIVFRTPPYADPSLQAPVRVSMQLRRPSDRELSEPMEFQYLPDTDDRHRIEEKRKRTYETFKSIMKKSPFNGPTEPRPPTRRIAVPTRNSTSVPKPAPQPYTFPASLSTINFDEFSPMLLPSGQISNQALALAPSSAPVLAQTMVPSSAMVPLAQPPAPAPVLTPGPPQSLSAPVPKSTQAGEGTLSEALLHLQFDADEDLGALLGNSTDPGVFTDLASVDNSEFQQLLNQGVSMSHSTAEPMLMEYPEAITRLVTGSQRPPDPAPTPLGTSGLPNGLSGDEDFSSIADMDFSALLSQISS
Kind of data set: Number and Brightness (N&B) live-cell confocal fluorescence fluctuation microscopy; nuclei of live primary mouse adult fibroblasts (WT or p50/c-Rel double-KO) transiently expressing mEGFP-RelA, 100 ng/mL LPS; brightness ε relative to the monomer control; untagged endogenous RelA present. The note with it: remark: other sources report otherwise.

Data set [4] has as its target T2, mEGFP-RelA (fluorescent fusion protein …). Nature of the data set: Number and Brightness (N&B) live-cell confocal fluorescence fluctuation microscopy; nuclei of live NIH3T3 fibroblasts transiently or stably expressing the mEGFP fusion, 37°C; brightness ε relative to the mEGFP-mutGR monomer control; stimuli 10 ng/mL TNFα, 100 ng/mL LPS, 100 nM Dex, dihydrotestosterone or progesterone; pre-treatments WFA (0.5 or 1 μM, 1 h) or TSA (2 h) before LPS; untagged endogenous protein present. The following applies: remark: other sources report otherwise.

For data set [5], the target named is T3, mEGFP-RelA from the knock-in (KI) mouse (mEGFP inserted at the endogenous RelA locus) (mouse), Q04207.
T3 chain: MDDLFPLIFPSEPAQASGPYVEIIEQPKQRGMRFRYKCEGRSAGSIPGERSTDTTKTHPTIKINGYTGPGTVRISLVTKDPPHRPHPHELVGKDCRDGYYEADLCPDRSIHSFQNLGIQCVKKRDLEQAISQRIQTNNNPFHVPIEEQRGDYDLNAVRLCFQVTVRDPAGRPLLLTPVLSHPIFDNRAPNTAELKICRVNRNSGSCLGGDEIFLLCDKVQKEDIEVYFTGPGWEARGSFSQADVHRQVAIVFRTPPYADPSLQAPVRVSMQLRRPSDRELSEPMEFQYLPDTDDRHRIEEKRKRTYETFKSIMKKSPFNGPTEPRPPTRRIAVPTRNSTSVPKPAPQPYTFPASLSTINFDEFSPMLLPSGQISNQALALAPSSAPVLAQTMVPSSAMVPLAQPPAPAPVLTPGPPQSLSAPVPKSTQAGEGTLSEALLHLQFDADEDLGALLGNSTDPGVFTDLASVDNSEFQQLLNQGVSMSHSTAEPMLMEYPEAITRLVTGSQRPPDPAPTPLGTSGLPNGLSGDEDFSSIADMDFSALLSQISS
Nature of the data set: Number and Brightness (N&B) live-cell confocal fluorescence fluctuation microscopy; nuclei of live primary MAFs from the mEGFP-RelA knock-in mouse, treated with TNFα or LPS; all RelA tagged. The note with it: remark: other sources report otherwise.

B1: mEGFP-PR (mEGFP-tagged progesterone receptor) (natural protein, UniProt P06401 1-933, looked up)
chain: MTELKAKGPRAPHVAGGPPSPEVGSPLLCRPAAGPFPGSQTSDTLPEVSAIPISLDGLLFPRPCQGQDPSDEKTQDQQSLSDVEGAYSRAEATRGAGGSSSSPPEKDSGLLDSVLDTLLAPSGPGQSQPSPPACEVTSSWCLFGPELPEDPPAAPATQRVLSPLMSRSGCKVGDSSGTAAAHKVLPRGLSPARQLLLPASESPHWSGAPVKPSPQAAAVEVEEEDGSESEESAGPLLKGKPRALGGAAAGGGAAAVPPGAAAGGVALVPKEDSRFSAPRVALVEQDAPMAPGRSPLATTVMDFIHVPILPLNHALLAARTRQLLEDESYDGGAGAASAFAPPRSSPCASSTPVAVGDFPDCAYPPDAEPKDDAYPLYSDFQPPALKIKEEEEGAEASARSPRSYLVAGANPAAFPDFPLGPPPPLPPRATPSRPGEAAVTAAPASASVSSASSSGSTLECILYKAEGAPPQQGPFAPPPCKAPGASGCLLPRDGLPSTSASAAAAGAAPALYPALGLNGLPQLGYQAAVLKEGLPQVYPPYLNYLRPDSEASQSPQYSFESLPQKICLICGDEASGCHYGVLTCGSCKVFFKRAMEGQHNYLCAGRNDCIVDKIRRKNCPACRLRKCCQAGMVLGGRKFKKFNKVRVVRALDAVALPQPVGVPNESQALSQRFTFSPGQDIQLIPPLINLLMSIEPDVIYAGHDNTKPDTSSSLLTSLNQLGERQLLSVVKWSKSLPGFRNLHIDDQITLIQYSWMSLMVFGLGWRSYKHVSGQMLYFAPDLILNEQRMKESSFYSLCLTMWQIPQEFVKLQVSQEEFLCMKVLLLLNTIPLEGLRSQTQFEEMRSSYIRELIKAIGLRQKGVVSSSQRFYQLTKLLDNLHDLVKQLHLYCLNTFIQSRALSVEFPEMMSEVIAAQLPKILAGMVKPLLFHKK
notes: progesterone receptor; Assayed in cells treated with progesterone; source: fibroblasts (immortalized), transiently transfected, in live cells
On to B1, for which, in data set [1], the “nuclear brightness (ε) relative to monomer control; transiently transfected fibroblasts, progesterone” value was 2.07.

B2: mEGFP-GR (mEGFP-tagged wild-type glucocorticoid receptor), P06537 1-792 (natural protein)
chain: MDSKESLAPPGRDEVPSSLLGRGRGSVMDLYKTLRGGATVKVSASSPSVAAASQADSKQQRILLDFSKGSASNAQQQQQQQQQQQQQQQQQPQPDLSKAVSLSMGLYMGETETKVMGNDLGYPQQGQLGLSSGETDFRLLEESIANLNRSTSRPENPKSSTPAAGCATPTEKEFPQTHSDPSSEQQNRKSQPGTNGGSVKLYTTDQSTFDILQDLEFSAGSPGKETNESPWRSDLLIDENLLSPLAGEDDPFLLEGDVNEDCKPLILPDTKPKIQDTGDTILSSPSSVALPQVKTEKDDFIELCTPGVIKQEKLGPVYCQASFSGTNIIGNKMSAISVHGVSTSGGQMYHYDMNTASLSQQQDQKPVFNVIPPIPVGSENWNRCQGSGEDNLTSLGAMNFAGRSVFSNGYSSPGMRPDVSSPPSSSSTATGPPPKLCLVCSDEASGCHYGVLTCGSCKVFFKRAVEGQHNYLCAGRNDCIIDKIRRKNCPACRYRKCLQAGMNLEARKTKKKIKGIQQATAGVSQDTSENANKTIVPAALPQLTPTLVSLLEVIEPEVLYAGYDSSVPDSAWRIMTTLNMLGGRQVIAAVKWAKAIPGFRNLHLDDQMTLLQYSWMFLMAFALGWRSYRQASGNLLCFAPDLIINEQRMTLPCMYDQCKHMLFISTELQRLQVSYEEYLCMKTLLLLSSVPKEGLKSQELFDEIRMTYIKELGKAIVKREGNSSQNWQRFYQLTKLLDSMHDVVENLLSYCFQTFLDKSMSIEFPEMLAEIITNQIPKYSNGNIKKLLFHQK
With B2, the nuclear brightness (ε) relative to monomer control; transiently transfected 3T3, Dex in data set [2] is 1.52.

B3: mEGFP-RelA (fluorescent fusion protein expressed from the pSF-EF1α-Ub-Neo plasmid), Q04207 1-549 (natural protein)
chain: MDDLFPLIFPSEPAQASGPYVEIIEQPKQRGMRFRYKCEGRSAGSIPGERSTDTTKTHPTIKINGYTGPGTVRISLVTKDPPHRPHPHELVGKDCRDGYYEADLCPDRSIHSFQNLGIQCVKKRDLEQAISQRIQTNNNPFHVPIEEQRGDYDLNAVRLCFQVTVRDPAGRPLLLTPVLSHPIFDNRAPNTAELKICRVNRNSGSCLGGDEIFLLCDKVQKEDIEVYFTGPGWEARGSFSQADVHRQVAIVFRTPPYADPSLQAPVRVSMQLRRPSDRELSEPMEFQYLPDTDDRHRIEEKRKRTYETFKSIMKKSPFNGPTEPRPPTRRIAVPTRNSTSVPKPAPQPYTFPASLSTINFDEFSPMLLPSGQISNQALALAPSSAPVLAQTMVPSSAMVPLAQPPAPAPVLTPGPPQSLSAPVPKSTQAGEGTLSEALLHLQFDADEDLGALLGNSTDPGVFTDLASVDNSEFQQLLNQGVSMSHSTAEPMLMEYPEAITRLVTGSQRPPDPAPTPLGTSGLPNGLSGDEDFSSIADMDFSALLSQISS
For B3, in data set [3], the nuclear brightness (ε) relative to monomer control; WT primary MAFs, LPS came to 1.29; the nuclear brightness (ε) relative to monomer control; p50/c-Rel double-KO primary MAFs, LPS is 1.31; the percent of RelA-containing dimers in the nucleus that are homodimers (estimated from ε); WT primary MAFs, LPS was 20%. Also, in data set [4], the median nuclear brightness (ε) relative to monomer control; stably transfected 3T3, LPS amounted to 1.75; the median nuclear brightness (ε) relative to monomer control; stably transfected 3T3, TNFα amounted to 1.61; the median nuclear brightness (ε) relative to monomer control; transiently transfected 3T3, TNFα came out at 1.52; the nuclear brightness (ε); stably transfected 3T3, 0.5 μM WFA before LPS was determined as 1.57. For the same molecule, in data set [4], the nuclear brightness (ε); stably transfected 3T3, 1 μM WFA before LPS amounted to 1.61; the nuclear brightness (ε); stably transfected 3T3, TSA before LPS (concentration not given) is 1.42 and 1.58; the percent dimers (estimated from ε); stably transfected 3T3, LPS is 60%; the percent dimers (estimated from ε); stably transfected 3T3, TNFα was 43%. Besides, the percent of RelA dimer species that are RelA homodimers (estimated from ε); transiently transfected 3T3, TNFα in data set [4] was 35%.

B4: mEGFP-RelA from the knock-in (KI) mouse (mEGFP inserted at the endogenous RelA locus), Q04207 1-549 (natural protein)
chain: MDDLFPLIFPSEPAQASGPYVEIIEQPKQRGMRFRYKCEGRSAGSIPGERSTDTTKTHPTIKINGYTGPGTVRISLVTKDPPHRPHPHELVGKDCRDGYYEADLCPDRSIHSFQNLGIQCVKKRDLEQAISQRIQTNNNPFHVPIEEQRGDYDLNAVRLCFQVTVRDPAGRPLLLTPVLSHPIFDNRAPNTAELKICRVNRNSGSCLGGDEIFLLCDKVQKEDIEVYFTGPGWEARGSFSQADVHRQVAIVFRTPPYADPSLQAPVRVSMQLRRPSDRELSEPMEFQYLPDTDDRHRIEEKRKRTYETFKSIMKKSPFNGPTEPRPPTRRIAVPTRNSTSVPKPAPQPYTFPASLSTINFDEFSPMLLPSGQISNQALALAPSSAPVLAQTMVPSSAMVPLAQPPAPAPVLTPGPPQSLSAPVPKSTQAGEGTLSEALLHLQFDADEDLGALLGNSTDPGVFTDLASVDNSEFQQLLNQGVSMSHSTAEPMLMEYPEAITRLVTGSQRPPDPAPTPLGTSGLPNGLSGDEDFSSIADMDFSALLSQISS
In data set [5], B4 registered a percent of RelA dimer species that are RelA homodimers; knock-in MAFs, TNFα or LPS of less than 35%.
